Measured values: patent US20220364074, “RNA-GUIDED NUCLEASES AND ACTIVE FRAGMENTS AND VARIANTS THEREOF AND METHODS OF USE” (LIFEEDIT THERAPEUTICS, INC., published 2022)

T1: APG06646.1 (Bacillus sp.)
T1 chain: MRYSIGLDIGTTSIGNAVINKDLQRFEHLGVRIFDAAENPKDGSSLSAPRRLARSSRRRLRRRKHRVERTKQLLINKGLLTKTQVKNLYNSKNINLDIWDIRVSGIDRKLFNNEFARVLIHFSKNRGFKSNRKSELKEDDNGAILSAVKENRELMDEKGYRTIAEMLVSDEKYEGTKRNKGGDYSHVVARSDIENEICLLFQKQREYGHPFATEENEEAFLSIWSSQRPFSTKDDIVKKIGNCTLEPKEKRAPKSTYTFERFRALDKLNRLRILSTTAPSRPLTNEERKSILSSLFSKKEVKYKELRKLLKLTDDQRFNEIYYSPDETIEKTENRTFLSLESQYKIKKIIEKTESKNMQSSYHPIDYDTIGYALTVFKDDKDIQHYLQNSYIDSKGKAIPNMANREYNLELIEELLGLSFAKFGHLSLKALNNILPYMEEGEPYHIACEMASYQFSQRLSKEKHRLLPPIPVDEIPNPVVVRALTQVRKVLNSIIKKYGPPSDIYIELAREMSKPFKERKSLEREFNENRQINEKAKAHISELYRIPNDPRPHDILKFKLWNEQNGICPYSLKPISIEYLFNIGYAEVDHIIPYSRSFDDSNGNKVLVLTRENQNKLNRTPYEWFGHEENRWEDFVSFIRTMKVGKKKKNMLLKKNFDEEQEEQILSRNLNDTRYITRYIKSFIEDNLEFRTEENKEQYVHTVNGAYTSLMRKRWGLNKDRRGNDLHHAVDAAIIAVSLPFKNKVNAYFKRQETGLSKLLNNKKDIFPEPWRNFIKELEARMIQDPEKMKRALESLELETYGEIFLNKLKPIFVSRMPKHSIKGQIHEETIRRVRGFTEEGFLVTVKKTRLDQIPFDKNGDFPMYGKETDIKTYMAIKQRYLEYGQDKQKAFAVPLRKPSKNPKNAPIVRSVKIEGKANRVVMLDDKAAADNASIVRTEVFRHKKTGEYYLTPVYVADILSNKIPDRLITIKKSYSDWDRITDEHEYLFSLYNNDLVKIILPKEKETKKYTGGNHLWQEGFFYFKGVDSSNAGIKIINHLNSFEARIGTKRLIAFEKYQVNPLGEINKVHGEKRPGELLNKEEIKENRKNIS

T2: APG01658.1 (Staphylococcus sp.)
T2 chain: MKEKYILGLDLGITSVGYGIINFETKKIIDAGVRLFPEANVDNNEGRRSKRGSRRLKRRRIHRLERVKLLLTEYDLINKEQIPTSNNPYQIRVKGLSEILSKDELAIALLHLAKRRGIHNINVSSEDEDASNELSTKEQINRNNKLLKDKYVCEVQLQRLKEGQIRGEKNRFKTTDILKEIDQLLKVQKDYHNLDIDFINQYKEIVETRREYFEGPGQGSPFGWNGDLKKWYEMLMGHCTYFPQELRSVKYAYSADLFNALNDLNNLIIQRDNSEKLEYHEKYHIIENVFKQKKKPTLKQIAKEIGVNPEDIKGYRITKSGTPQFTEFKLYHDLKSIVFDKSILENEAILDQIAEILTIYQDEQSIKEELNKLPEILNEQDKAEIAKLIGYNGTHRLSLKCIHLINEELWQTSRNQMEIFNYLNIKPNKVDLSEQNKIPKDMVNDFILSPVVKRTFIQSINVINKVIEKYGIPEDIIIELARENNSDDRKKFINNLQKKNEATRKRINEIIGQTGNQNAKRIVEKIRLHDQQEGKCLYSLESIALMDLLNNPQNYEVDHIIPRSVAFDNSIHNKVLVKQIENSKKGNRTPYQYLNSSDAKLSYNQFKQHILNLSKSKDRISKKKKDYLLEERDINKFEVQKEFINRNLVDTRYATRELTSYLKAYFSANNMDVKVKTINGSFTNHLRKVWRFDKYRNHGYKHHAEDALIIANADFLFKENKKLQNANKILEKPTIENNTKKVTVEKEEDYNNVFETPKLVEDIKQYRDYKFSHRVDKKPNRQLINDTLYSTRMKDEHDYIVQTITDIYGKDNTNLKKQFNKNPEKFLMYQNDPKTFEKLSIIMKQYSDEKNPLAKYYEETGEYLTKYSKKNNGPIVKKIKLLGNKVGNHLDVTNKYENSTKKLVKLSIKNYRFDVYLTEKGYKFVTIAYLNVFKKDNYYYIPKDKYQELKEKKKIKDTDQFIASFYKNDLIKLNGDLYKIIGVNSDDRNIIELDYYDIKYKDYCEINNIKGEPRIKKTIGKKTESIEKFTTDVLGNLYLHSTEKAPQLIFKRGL


Legend:
APG06646.1 = target: T1, APG06646.1; assay: cell_activity; PAM NNNNC 3'; details: tags: N-term SV40 NLS and 3xFLAG, C-term 2x nucleoplasmin NLS in HEK293T
APG01658.1 = target: T2, APG01658.1; assay: cell_activity; PAM SEQ ID NO 44, 3' of target; details: tags: N-term SV40 NLS and 3xFLAG, C-term 2x nucleoplasmin NLS in HEK293T

Binder	activity (APG06646.1) [% editing]	activity (APG01658.1) [% editing]
guide 451 ; TRA target 512 (ssRNA ; dsDNA) RNA: CCCUGGCUGUGCACAUUCCCUCCUGGCCAUAAUUCCUCUGUAAAACUUAAAGAAGGUUUAUAGAGUUAUUAUGGUAAGGCAAUAUGCCGUGGCGUUGGGGAUCGCCUAUGUCCGGUUUUACCGGAUCUCCCUAAAGGUGACUAACUUUGGUUAGUCACCUUUUU DNA 1: CCCTGGCTGTGCACATTCCCTCCTG DNA 2: CAGGAGGGAATGTGCACAGCCAGGG	7.03	
guide 428 ; AurkB target 491 (ssRNA ; dsDNA) RNA: GGCUGGGCCAUUAAAACCUCUCCAGUUUUAGUACUCUGUAAUUUUAGGUAUGAAAGUCAUACCUAAAAUUACAGAAUCUACUGAAACAAGACUAUAUGUCGUGUUUAUCCCACUAAUUUAUUAGUGGGAUUUU DNA 1: GGCTGGGCCATTAAAACCTCTCCA DNA 2: TGGAGAGGTTTTAATGGCCCAGCC		13.1
guide 462 ; AurkB target 523 (ssRNA ; dsDNA) RNA: GUUUUAAUGGCCCAGCCUCACACCCGCCAUAAUUCCUCUGUAAAACUUAAAGAAGGUUUAUAGAGUUAUUAUGGUAAGGCAAUAUGCCGUGGCGUUGGGGAUCGCCUAUGUCCGGUUUUACCGGAUCUCCCUAAAGGUGACUAACUUUGGUUAGUCACCUUUUU DNA 1: GTTTTAATGGCCCAGCCTCACACCC DNA 2: GGGTGTGAGGCTGGGCCATTAAAAC	10.9	
guide 450 ; AurkB target 493 (ssRNA ; dsDNA) RNA: CAUGGCAGUACAUUAGAGCAGCCAUAAUUCCUCUGUAAAACUUAAAGAAGGUUUAUAGAGUUAUUAUGGUAAGGCAAUAUGCCGUGGCGUUGGGGAUCGCCUAUGUCCGGUUUUACCGGAUCUCCCUAAAGGUGACUAACUUUGGUUAGUCACCUUUUU DNA 1: CATGGCAGTACATTAGAGCA DNA 2: TGCTCTAATGTACTGCCATG	7.94	
guide 423 ; RelA target 486 (ssRNA ; dsDNA) RNA: ACAGUGCGCAUCUCCCUGGUCACCGUUUUAGUACUCUGUAAUUUUAGGUAUGAAAGUCAUACCUAAAAUUACAGAAUCUACUGAAACAAGACUAUAUGUCGUGUUUAUCCCACUAAUUUAUUAGUGGGAUUUU DNA 1: ACAGTGCGCATCTCCCTGGTCACC DNA 2: GGTGACCAGGGAGATGCGCACTGT		10
